# Test results: patent publication US20250188133A1, “CHIMERIC BACTERIOCINS AND METHOD FOR THE CONTROL OF PSEUDOMONAS” (priority 2022, published 2025)
# Columns and labels:
# [1] = test system: P. aeruginosa 13-18499; experiment: agar disc-diffusion assay; type: cell-based; details: strain 13-18499; 0.3, 3 and 30 μg of protein spotted on discs on CAA agar lawn, overnight
# Method in brief: (§1)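 Purified pyocin (0.3, 3 or 30 μg) was applied to 6 mm discs laid on lawns of P. aeruginosa prepared from 100×-diluted OD595=1.0 CAA cultures. Growth inhibition zones were recorded after overnight incubation at 37° C.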
# [2] = test system: P. aeruginosa ATCC 29260; experiment: agar disc-diffusion assay; type: cell-based; details: strain ATCC 29260; 0.3, 3 and 30 μg of protein spotted on discs on CAA agar lawn, overnight
# Method in brief: as §1
# [3] = test system: P. aeruginosa BL77; experiment: agar disc-diffusion assay; type: cell-based; details: strain BL77; 0.3, 3 and 30 μg of protein spotted on discs on CAA agar lawn, overnight
# Method in brief: as §1
# [4] = test system: P. aeruginosa BR79; experiment: agar disc-diffusion assay; type: cell-based; details: strain BR79; 0.3, 3 and 30 μg of protein spotted on discs on CAA agar lawn, overnight
# Method in brief: as §1
# [5] = test system: P. aeruginosa Boston 41501 (ATCC 27853); experiment: agar disc-diffusion assay; type: cell-based; details: strain Boston; 0.3, 3 and 30 μg of protein spotted on discs on CAA agar lawn, overnight
# Method in brief: as §1
# [6] = test system: P. aeruginosa EY76; experiment: agar disc-diffusion assay; type: cell-based; details: strain EY76; 0.3, 3 and 30 μg of protein spotted on discs on CAA agar lawn, overnight
# Method in brief: as §1
# [7] = test system: P. aeruginosa HP41; experiment: agar disc-diffusion assay; type: cell-based; details: strain HP41; 0.3, 3 and 30 μg of protein spotted on discs on CAA agar lawn, overnight
# Method in brief: as §1
# [8] = test system: P. aeruginosa HP75; experiment: agar disc-diffusion assay; type: cell-based; details: strain HP75; 0.3, 3 and 30 μg of protein spotted on discs on CAA agar lawn, overnight
# Method in brief: as §1
# [9] = test system: P. aeruginosa HP7; experiment: agar disc-diffusion assay; type: cell-based; details: strain HP7; 0.3, 3 and 30 μg of protein spotted on discs on CAA agar lawn, overnight
# Method in brief: as §1
# [10] = test system: P. aeruginosa PA14; experiment: agar disc-diffusion assay; type: cell-based; details: strain PA14; 0.3, 3 and 30 μg of protein spotted on discs on CAA agar lawn, overnight
# Method in brief: as §1
# [11] = test system: P. aeruginosa PAO1; experiment: agar disc-diffusion assay; type: cell-based; details: strain PAO1; 0.3, 3 and 30 μg of protein spotted on discs on CAA agar lawn, overnight
# Method in brief: as §1
# [12] = test system: P. aeruginosa Pr335; experiment: agar disc-diffusion assay; type: cell-based; details: strain Pr335; 0.3, 3 and 30 μg of protein spotted on discs on CAA agar lawn, overnight
# Method in brief: as §1
# [13] = test system: P. aeruginosa UR78; experiment: agar disc-diffusion assay; type: cell-based; details: strain UR78; 0.3, 3 and 30 μg of protein spotted on discs on CAA agar lawn, overnight
# Method in brief: as §1
# [14] = test system: P. aeruginosa ATCC 19660; experiment: murine keratitis model, cytotoxic strain (C57BL/6 mice); type: in vivo; details: for viable bacteria isolated, one mouse: only mouse with viable bacteria
# Experimental: The inbred mice of C57BL/6 strain of both sexes in equivalent numbers were used for the research. 2-6 months old, adult female and adult male mice were purchased from the Vilnius University vivarium of laboratory animals. The animals throughout the period of the experiment were given standard chow and drinking water ad libitum. Animals were housed in the individual plastic cages in a 12 h light/dark cycle at 21-23° C. All regulated procedures on living animals were approved by The Lithuanian Ethics Committee of Biomedical Research (Protocol no. B1-442) and were carried out in accordance with the European Union legislation of OECD (directive 2010/63/EU). The experiments were carried out in Biological research center of Lithuanian University of Health Sciences.
# For P. aeruginosa infection and keratitis induction the mice were anesthetized by Ketamine and Xylazine 90:9 mg/kg intraperitoneal injection. The cornea of the left eye of each mouse was visualized under a stereoscopic microscope, and three 1 mm scratches were made using a sterile 25 gauge needle. A 10 μL aliquot containing 4×10^6 cells of P. aeruginosa ATCC 19660 (cytotoxic strain) or PAO1 ATCC 15692 (invasive strain) was applied to the corneal surface. Depending on the experiment, the treatment was started 30 min or 6 h post infection. 10 μl aliquot containing 0.14 mg of tobramycin or 20 μg of S5-PmnH (both containing 0.5% hydroxypropyl methylcellulose (HPMC)) or PBS containing 0.5% HPMC was applied as one drop of substance to the each eye. HPMC is used as artificial tears and was used in order to thicken the tears film and prolong the presence of the applied product on the surface of the cornea. The treatment was continued for five days twice daily. Mice were euthanized by cervical dislocation 1, 3, 5 days post infection, and the eyeballs were collected and homogenized for viable bacteria count.
# The eyes were examined and photographed with a dissection microscope equipped with a digital camera at 1, 3 and 5 dpi to monitor the disease progression. At 1, 3 and 5 dpi disease severity was visually graded by using an established corneal damage scale: 0, the pupil was partially or fully covered by clear or slight opacity; +1, the anterior segment was partially or fully covered by slight opacity; +2, the pupil was partially or fully covered by dense opacity; +3, the entire anterior segment was covered by dense opacity; and +4, corneal perforation^40.
# Histopathology experiments were carried out at Lithuanian University of Health Sciences, Department of Veterinary Pathobiology of Veterinary Academy. One randomly chosen mice of each study group was used for histopathology experiments. Enucleated eyes were preserved in 10% formaldehyde. Eyes were paraffin-embedded, cut into 3-μm-thick sections, deparaffinised, rehydrated and used for preparation of hematoxylin/eosin stained samples.
# [15] = treatment started 30 min post infection
# [16] = treatment started 6 h post infection, 1 dpi
molecule,measurement,setting,value
"S5-PmnH (protein, Chimeric S5-PmnH) MSNDNEVPGSMVIVAQGPDDQYAYEVPPIDSAAVAGNMFGDLIQREIYLQKNIYYPVRSIFEQGTKEKKEINKKVSDQVDGLLKQITQGKREATRQERVDVMSAVLHKMESDLEGYKKTFTKGPFIDYEKQSSLSIYEAWVKIWEKNSWEERKKYPFQQLVRDELERAVAYYKQDSLSEAVKVLRQELNKQKALKEKEDLSQLERDYRTRKANLEMKVQSELDQAGSALPPLVSPTPEQWLERATRLVTQAIADKKQLQTTNNTLIKNSPTPLEKQKAIYNGELLVDEIASLQARLVKLNAETTRRRTEKELTPDEKAAYTDAVSFVSTANEQMLQKYGANLSKVAQDMQAEIAGKKVRSYAEAMATFEKISANPAMKLNALDTQAVVDALNALDKASFADNITRLGKAFGVVGKVVQAEAIREKTVSGFQTGDWKPLMLELEAMAVGTGAGILLATSMAFFFPVFASAAAGVVVVALMMAATAAYFDAAKVDEINNLILN",Activity in agar disc-diffusion assay,[1],** (activity detected with 3 μg of protein)
same,Activity in agar disc-diffusion assay,[2],*** (activity detected with 0.3 μg of protein)
same,Activity in agar disc-diffusion assay,[3],** (activity detected with 3 μg of protein)
same,Activity in agar disc-diffusion assay,[4],** (activity detected with 3 μg of protein)
same,Activity in agar disc-diffusion assay,[5],*** (activity detected with 0.3 μg of protein)
same,Activity in agar disc-diffusion assay,[6],*** (activity detected with 0.3 μg of protein)
same,Activity in agar disc-diffusion assay,[7],*** (activity detected with 0.3 μg of protein)
same,Activity in agar disc-diffusion assay,[8],** (activity detected with 3 μg of protein)
same,Activity in agar disc-diffusion assay,[9],*** (activity detected with 0.3 μg of protein)
same,Activity in agar disc-diffusion assay,[10],*** (activity detected with 0.3 μg of protein)
same,Activity in agar disc-diffusion assay,[11],*** (activity detected with 0.3 μg of protein)
same,Activity in agar disc-diffusion assay,[12],*** (activity detected with 0.3 μg of protein)
same,Activity in agar disc-diffusion assay,[13],*** (activity detected with 0.3 μg of protein)
same,histopathology of infected treated eyes,[14]; [15],Only weak oedema in the corneal stroma
same,"signs of disease (visual inspection, clinical score)",[14]; [15],No signs of disease were observed in majority of samples
same,viable bacteria isolated from infected eyes,"[14]; treatment started 30 min post infection, twice daily, 1, 3 or 5 dpi, 20 μg S5-PmnH or 0.14 mg tobramycin per eye",no viable P. aeruginosa were isolated
same,clinical score evaluation,"[14]; treatment started 6 h post infection, 1 and 3 dpi, two S5-PmnH-treated and one tobramycin-treated mice",Only mild disease signs were observed
same,histopathology of infected treated eyes,[14]; [16],signs of acute inflammation of cornea
same,"viable bacteria isolated, one mouse",[14]; [16],3.6 log10 CFU/cornea
same,histopathology of infected treated eyes,"[14]; treatment started 6 h post infection, 3 and 5 dpi",no marked aberrations
same,"viable bacteria isolated, one mouse","[14]; treatment started 6 h post infection, 3 dpi",5 log10 CFU/cornea
same,clinical score evaluation,"[14]; treatment started 6 h post infection, 5 dpi",all corneas were completely clear
same,viable bacteria isolated,"[14]; treatment started 6 h post infection, 5 dpi, three mice",No viable bacteria were isolated
